Measurements as given in patent US20230212300A1 (REMD BIOTHERAPEUTICS, published 2023).

B1: murine mAb 312A10E5 (antibody, V domains shown)
VH: QIQLVQSGPDLKKPGETVKISCKASGYTFTNYGMSWVKQAPGKGLKWMGWINTYSGESTYADDFKGRFAFSLETSASTAYLQINNLKNEDTATYFCARSLNRDTWFTYWGQGTLVTVSA
VL: QAVVTQESALSTSPGETVTLTCRSITGAVTTSNYANWVQEKPDHLFTGLIGGTNNRAPGVPARFSGSLIGDKAALTITGAQTEDEAIYFCALWYSNHWVFGGGTKLTVL
B2: murine mAb 336D8G9 (antibody, V domains shown)
VH: EVQLQQSGAELVRPGASVKLSCPASGFTIKDYYIHWVKQRPEQGLEWIGRIDPEDGDTEYAPKFQGKATMTADTSSNTAYLHLSSLTSEDTAVYYCTSNWYSNSYWGQGTTLTVSS
VL: DVVMTQTPLSLPVSLGDQASISCRSSQSLVHSNGNTYLHWYLQKPGQSPKVLIYKVSNRFSGVPDRFSGSGSGTDFTLKISRVEAEDLGVYFCSQSTHVPYTFGGGTKLEIK

Target: T1, human endothelin A receptor (ETAR), tagged, stably expressed on recombinant CHO cells (human, UniProt P25101 21-427)
T1 sequence: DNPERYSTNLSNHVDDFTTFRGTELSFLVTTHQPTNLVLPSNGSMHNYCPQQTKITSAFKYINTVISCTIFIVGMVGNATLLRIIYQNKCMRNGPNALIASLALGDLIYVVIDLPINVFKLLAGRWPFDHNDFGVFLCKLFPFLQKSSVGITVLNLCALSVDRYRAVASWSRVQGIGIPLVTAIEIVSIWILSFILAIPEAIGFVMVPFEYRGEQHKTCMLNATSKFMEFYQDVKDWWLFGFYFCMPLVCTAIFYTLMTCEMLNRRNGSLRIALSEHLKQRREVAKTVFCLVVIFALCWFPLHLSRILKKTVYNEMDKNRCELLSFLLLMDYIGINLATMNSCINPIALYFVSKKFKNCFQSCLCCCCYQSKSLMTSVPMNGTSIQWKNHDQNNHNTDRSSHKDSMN
Experiment: cell-based or functional assay

Binder | HuET AR Binding IC50 (nM); IP1 assay (IP-one-Gq kit, HTRF 665/620) with 25.0 nM ET-1 [nM]
B1 | 0.0891
B2 | 0.0607
